Measurements published in patent US12600782 (BIOTHEUS, dated 2026).
Changes are numbered by the printed parent chain. Read-outs that look alike come from different tables or passages of the source.

T1: human PD-L2 on CHO cells (CHO-hPD-L2 cells) (human, UniProt Q9BQ51 20-273)
T1 construct: whole, on cells; also called CHO-K1-PD-L1/PD-L2
T1 sequence (looked up): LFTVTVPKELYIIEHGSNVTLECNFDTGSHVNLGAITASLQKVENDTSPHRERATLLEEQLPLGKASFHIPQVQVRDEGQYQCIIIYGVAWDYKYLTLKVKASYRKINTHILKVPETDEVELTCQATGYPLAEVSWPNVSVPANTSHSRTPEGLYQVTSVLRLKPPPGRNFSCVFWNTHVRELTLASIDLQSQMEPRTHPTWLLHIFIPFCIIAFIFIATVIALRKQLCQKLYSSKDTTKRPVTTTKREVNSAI

B1: D-Na-96 (antibody, V domains shown)
VH: QVQLVESGGGLVQAGASLRLSCAASGRTFSSMTIGWFRQTPGKEREFVAGIGWTSGLTVYADSVKGRFTISRDNAEKTMYLHMNNLKPEDTSVYYCAADSMNRGQFDYWGQGTQVTVSS
notes: Anti-PD-L2 heavy chain antibody: VHH linked to human IgG1 (LALA) Fc; the junction is not described
B2: HZ-D-Na-96-1 (antibody, V domains shown)
VH: EVQLVESGGGLVQPGGSLRLSCAASGRTFSSMTIGWFRQAPGKGLEFVSGIGWTSGLTVYADSVKGRFTISRDNAKNSMYLQMNSLRAEDTAVYYCAADSMNRGQFDYWGQGTLVTVSS
notes: Humanized anti-PD-L2 heavy chain antibody: VHH linked to human IgG1 (LALA) Fc; the junction is not described
B3: human PD-L2 protein (purchased from AcroBiosystems) (ligand, UniProt Q9BQ51 20-219, looked up)
chain: LFTVTVPKELYIIEHGSNVTLECNFDTGSHVNLGAITASLQKVENDTSPHRERATLLEEQLPLGKASFHIPQVQVRDEGQYQCIIIYGVAWDYKYLTLKVKASYRKINTHILKVPETDEVELTCQATGYPLAEVSWPNVSVPANTSHSRTPEGLYQVTSVLRLKPPPGRNFSCVFWNTHVRELTLASIDLQSQMEPRTHP
modifications: biotinylated in the blocking assays
notes: Bought soluble protein; also called PD-L2 antigen; biotinylated human PD-L2 protein
B4: K-Yr-13&14-02 (antibody, V domains shown)
VH: QVQLVESGGGLVKAGDSLRLSCAASGHTFIIYAIGWFRQAPGKEREFVATINWSGSMTNYTDSVKGRFTISRDNAKNTVYLQMNSLKPDDTAIYYCAAYVGATISTAHSRYDYWGQGTQVTVSS
notes: Anti-PD-L1 heavy chain antibody: VHH linked to human IgG1 (LALA) Fc; the junction is not described
B5: HZ-K-Yr-13&14-02-3 (antibody, V domains shown)
VH: B4 VH with A14P, D16G, E44G, R45L, T61A, I93V, Q119L
notes: Humanized anti-PD-L1 heavy chain antibody: VHH linked to human IgG1 (LALA) Fc; the junction is not described; also called HZ-K-13&14-02-3
B6: Bi-203-204 (bispecific antibody, human IgG1, kappa, L234A L235A, V domains shown)
V domain 1: B4 VH with A14P, D16G, E44G, R45L, T61A, I93V, Q119L
V domain 2: B2 VH
notes: Formula III + IV format

Tests used:
[1] = target: human PD-L1 protein (purchased from AcroBiosystems) (human) (UniProt Q9NZQ7); test: BLI (ForteBio), antibody on AHQ sensor, 100 nM PD-L1 antigen, 1:1 model
[2] = target: human PD-L1 protein (purchased from AcroBiosystems) (human) (UniProt Q9NZQ7); test: as above; remark: listed apart in the source
[3] = target: human PD-L1 on CHO cells (CHO-hPD-L1 cells) (human) (UniProt Q9NZQ7); test: flow cytometry on CHO-hPD-L1 cells, PE anti-human IgG-Fc, MFI; table under the plot, unit from the concentration axis
[4] = target: human PD-L1 protein (purchased from AcroBiosystems) (human) (UniProt Q9NZQ7); test: flow cytometry blocking assay: antibody pre-incubated with biotinylated human PD-L1 protein (1 ug/ml), binding of PD-L1 to CHO-hPD-1 cells read as MFI; falling curve, the table under the plot calls the half-maximal concentration EC50; unit from the concentration axis
[5] = target: B3; test: BLI (ForteBio), antibody on AHQ sensor, 100 nM PD-L2 antigen, 1:1 model
Protocol: (§1) ForteBio affinity determination was carried out according to existing methods (Estep, P et al., High throughput solution-based measurement of antibody-antigen affinity and epitope binning. MAbs, 2013.5(2): p. 270-8). In short, the sensor was equilibrated for 30 min under the line of the analysis buffer, and then the baseline was established after online detection for 60 s. The purified antibody obtained as described above was loaded onto the AhQ sensor online. […] Kinetic analysis was performed using a 1:1 binding model.
(§2) The experimental method was the same as that in Example 1.5.

[6] = target: B3; test: as above; remark: listed apart in the source
Protocol: as §1

[7] = target: T1, human PD-L2 on CHO cells (CHO-hPD-L2 …); test: flow cytometry on CHO-hPD-L2 cells, PE anti-human IgG-Fc, median fluorescence intensity (MFI)
Protocol: (§3) The expanded CHO-hPD-L2 cells were adjusted to a cell density of 2×10⁶ cells/ml, and were added to 96-well flow plate at 100 μl/well, and centrifuged for later use. […] The diluted samples were added to the 96-well flow plate with cells at 100 μl/well, incubated at 4° C. for 30 min, and washed twice with PBS. Goat F(ab')2 anti-human IgG-Fc (PE) (purchased from Abcam) diluted 100 times with PBS was added at 100 μl/well, incubated at 4° C. for 30 min, and washed twice with PBS. PBS was added at 100 μl/well to resuspend cells, and detection was performed on a CytoFlex (Bechman) flow cytometer and the corresponding MFI was calculated.

[8] = target: T1, human PD-L2 on CHO cells (CHO-hPD-L2 …); test: as above; remark: listed apart in the source
Protocol: as §3

[9] = target: B3; test: flow cytometry blocking assay: antibody pre-incubated with biotinylated human PD-L2 protein (1 ug/ml), binding of PD-L2 to CHO-hPD-1 cells read as MFI
Protocol: (§4) CHO cells overexpressing human PD-1 (CHO-hPD-1 cells) were generated by transfection of the pCHO1.0 vector (purchased from Invitrogen™) cloning human PD-1 cDNA (purchased from Sino Biological). The expanded CHO-hPD-1 cells were adjusted to a cell density of 2×10⁶ cells/ml, and were added to 96-well flow plate at 100 μl/well, and centrifuged for later use. The purified mutant sample was diluted with PBS and diluted 3 times from […] for 12 points. […] The co-incubation sample was added to the above-mentioned 96-well flow plate with cells 100 μl/well, incubated at 4° C. for 30 min, and washed twice with PBS. APC goat anti-mouse IgG (minimum×reactive) antibody diluted 100 times with PBS (purchased from Biolegend®) was added at 100 μl/well, incubated at 4° C. for 30 min, and washed twice with PBS. PBS was added at 100 μl/well to resuspend cells, and detection was performed on a CytoFlex (Bechman) flow cytometer and the corresponding MFI was calculated.

[10] = target: B3; test: flow cytometry blocking assay: antibody pre-incubated with biotinylated human PD-L2 protein (1 ug/ml), binding of PD-L2 to CHO-hPD-1 cells read as MFI (APC)
Protocol: as §4

[11] = target: T1, human PD-L2 on CHO cells (CHO-hPD-L2 …); test: flow cytometry on CHO-hPD-L2 cells, PE anti-human IgG-Fc, MFI; table under the plot, unit from the concentration axis
[12] = target: B3; test: flow cytometry blocking assay: antibody pre-incubated with biotinylated human PD-L2 protein (1 ug/ml), binding of PD-L2 to CHO-hPD-1 cells read as MFI (APC); falling curve, the table under the plot calls the half-maximal concentration EC50; unit from the concentration axis
Protocol: (§5) The expanded CHO-hPD-1 cells were adjusted to a cell density of 2 ×10^6 cells/ml, and were added to 96-well flow plate at 100 μl/well, and centrifuged for later use. The purified mutant sample was diluted with PBS and diluted 3 times from […] for 12 points.
(§6) 28 purified sample at 4° C. for 30 min. The co-incubation sample was added to the above-mentioned 96-well flow plate with cells at 100 μl/well, incubated at 4° C. for 30 min, and washed twice with PBS. APC goat anti-mouse IgG (minimum×reactivity) antibody diluted 100 times with PBS (purchased from Biolegend®) was added at 100 μl/well, incubated at 4° C. for 30 min, and washed twice with PBS. PBS was added at 100 μl/well to resuspend cells, and detection was performed on a CytoFlex (Bechman) flow cytometer and the corresponding MFI was calculated.

[13] = target: T2, human PD-1 on CHO cells (CHO-hPD-1 cells) (human, UniProt Q15116 25-288); test: flow cytometry: biotinylated human PD-L2 protein (1 ug/ml) on CHO-hPD-1 cells, no antibody
T2 construct: whole, on cells
Protocol: as §4

[14] = target: T3, human PD-L1 protein (purchased from AcroBiosystems) (human, UniProt Q9NZQ7 19-238, biotinylated in the blocking assay); test: BLI (ForteBio), antibody on AHQ sensor, 100 nM PD-L1 antigen, 1:1 model
T3 construct: Bought soluble protein; also called PD-L1 antigen; biotinylated human PD-L1 protein
Protocol: as §1

[15] = target: T4, human PD-L1 on CHO cells (CHO-hPD-L1 cells) (human, UniProt Q9NZQ7 19-290); test: flow cytometry on CHO-hPD-L1 cells, PE anti-human IgG-Fc, median fluorescence intensity (MFI)
T4 construct: whole, on cells; also called CHO-K1-PD-L1/PD-L2

[16] = target: T3, human PD-L1 protein (purchased from …); test: BLI (ForteBio), antibody on AHQ sensor, 100 nM PD-L1 antigen, 1:1 model; remark: listed apart in the source
Protocol: as §1, §2

[17] = target: T4, human PD-L1 on CHO cells (CHO-hPD-L1 …); test: flow cytometry on CHO-hPD-L1 cells, PE anti-human IgG-Fc, MFI; table under the plot, unit from the concentration axis
[18] = target: T3, human PD-L1 protein (purchased from …); test: flow cytometry blocking assay: antibody pre-incubated with biotinylated human PD-L1 protein (1 ug/ml), binding of PD-L1 to CHO-hPD-1 cells read as MFI; falling curve, the table under the plot calls the half-maximal concentration EC50; unit from the concentration axis
Protocol: as §5, §6

T4 sequence (Q9NZQ7 19-290): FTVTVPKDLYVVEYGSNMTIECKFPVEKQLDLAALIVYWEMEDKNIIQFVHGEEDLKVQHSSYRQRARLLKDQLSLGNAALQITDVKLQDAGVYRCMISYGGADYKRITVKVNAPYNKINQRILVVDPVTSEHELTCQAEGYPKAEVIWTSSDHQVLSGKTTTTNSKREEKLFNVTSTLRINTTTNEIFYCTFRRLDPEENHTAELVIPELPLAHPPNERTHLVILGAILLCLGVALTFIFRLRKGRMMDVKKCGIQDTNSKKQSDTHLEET
T3 sequence (Q9NZQ7 19-238 limits assumed): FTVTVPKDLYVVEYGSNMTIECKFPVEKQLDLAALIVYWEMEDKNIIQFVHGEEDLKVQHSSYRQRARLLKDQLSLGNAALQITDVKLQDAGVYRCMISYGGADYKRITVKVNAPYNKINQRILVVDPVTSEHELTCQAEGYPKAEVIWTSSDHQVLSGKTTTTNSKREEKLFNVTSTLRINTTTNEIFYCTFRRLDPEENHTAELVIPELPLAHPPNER
human PD-L1 protein (purchased from AcroBiosystems) (human), sequence (Q9NZQ7 19-238 limits assumed): as above
human PD-L1 on CHO cells (CHO-hPD-L1 cells) (human), sequence (Q9NZQ7 19-290): as the sequence (Q9NZQ7 19-290) above
T2 sequence (Q15116 25-288): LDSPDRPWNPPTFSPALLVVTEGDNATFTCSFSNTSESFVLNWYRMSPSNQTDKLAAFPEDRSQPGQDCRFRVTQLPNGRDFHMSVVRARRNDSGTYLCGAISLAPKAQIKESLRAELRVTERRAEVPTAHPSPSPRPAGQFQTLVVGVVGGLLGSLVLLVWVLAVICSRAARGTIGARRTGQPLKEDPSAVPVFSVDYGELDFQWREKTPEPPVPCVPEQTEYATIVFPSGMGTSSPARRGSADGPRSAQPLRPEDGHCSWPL

control antibody ATE
Kd [1]: 1.3 nM
Kd [2]: 1.16 nM
EC50 [3]: 4.53 nM
EC50 [4]: 6.31 nM

B1
Kd [5]: 2.5 nM
koff [5]: 0.000655 s⁻¹
kon [5]: 262000 M⁻¹ s⁻¹
Kd [6]: 1.27 nM
koff [6]: 0.0011 s⁻¹
kon [6]: 862000 M⁻¹ s⁻¹
EC50 (read off the curve) [7]: ~50 nM
EC50 (read off the curve) [8]: ~6 nM
IC50 (read off the curve) [9]: ~9 nM
IC50 (read off the curve) [10]: ~2 nM

B2
Kd [5]: 1.68 nM
koff [5]: 0.000577 s⁻¹
kon [5]: 344000 M⁻¹ s⁻¹
Kd [6]: 1.11 nM
koff [6]: 0.0004 s⁻¹
kon [6]: 360000 M⁻¹ s⁻¹
EC50 (read off the curve) [8]: ~4 nM
EC50 [11]: 1.75 nM
IC50 (read off the curve) [10]: ~2 nM
EC50 [12]: 13.4 nM

B3
binding result [13]: binds

B4
Kd [14]: 0.96 nM
koff [14]: 0.000561 s⁻¹
kon [14]: 585000 M⁻¹ s⁻¹
EC50 (read off the curve) [15]: ~8 nM

B5
Kd [16]: 0.223 nM
koff [16]: 9.92e-05 s⁻¹
kon [16]: 445000 M⁻¹ s⁻¹
Kd [14]: 1.38 nM
koff [14]: 0.000309 s⁻¹
kon [14]: 224000 M⁻¹ s⁻¹
EC50 (read off the curve) [15]: ~10 nM
EC50 [17]: 2.55 nM
EC50 [18]: 5.17 nM

B6
Kd [14]: 1.59 nM
koff [14]: 0.000405 s⁻¹
kon [14]: 254000 M⁻¹ s⁻¹
Kd [6]: 1.14 nM
koff [6]: 0.000424 s⁻¹
kon [6]: 372000 M⁻¹ s⁻¹
EC50 [17]: 3.74 nM
EC50 [11]: 1.25 nM
EC50 [18]: 12.3 nM
EC50 [12]: 8.35 nM
